Data on 4 molecules can be found in PMC5537682, “DNA-Interacting Characteristics of the Archaeal Rudiviral Protein SIRV2_Gp1”.

Series [1] concerns the target T1, SIRV2_Gp1 (Sulfolobus islandicus rod-shaped virus …, UniProt Q8UYE8 1-83).
T1 sequence: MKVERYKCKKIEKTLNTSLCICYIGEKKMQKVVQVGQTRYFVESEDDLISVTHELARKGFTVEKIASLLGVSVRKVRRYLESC
In words: EMSA; >1 uM protein needed; higher affinity than single-stranded probes; 6-FAM EMSA: 50 mM Tris pH 7.5, 5 mM EDTA, 1 mM DTT, 100 ug/mL BSA, 100 nM probe, 20 min room temperature; 32P EMSA: 20 mM Tris pH 8.0, 0.4 mM EDTA, 1 mM MgCl2. The note with it: protein: recombinant; tags: C-terminal His-tag (pEXP5-CT/TOPO); blunt. For orientation: A gel shift assay detects complexes by their altered migration in electrophoresis.

Series [2] deals with T1, SIRV2_Gp1. Put plainly: EMSA; low affinity, >1 uM protein needed; smearing, unbound probe remains; 6-FAM EMSA: 50 mM Tris pH 7.5, 5 mM EDTA, 1 mM DTT, 100 ug/mL BSA, 100 nM probe, 20 min room temperature; 32P EMSA: 20 mM Tris pH 8.0, 0.4 mM EDTA, 1 mM MgCl2. The note with it: protein: recombinant; tags: C-terminal His-tag (pEXP5-CT/TOPO); label: 5'-6-FAM; single strand.
Series [3] concerns the target T1, SIRV2_Gp1. In words: EMSA; >1 uM protein needed; 6-FAM EMSA: 50 mM Tris pH 7.5, 5 mM EDTA, 1 mM DTT, 100 ug/mL BSA, 100 nM probe, 20 min room temperature; 32P EMSA: 20 mM Tris pH 8.0, 0.4 mM EDTA, 1 mM MgCl2. The conditions noted are these: protein: recombinant, tags: C-terminal His-tag (pEXP5-CT/TOPO).

B1: random 30-bp dsDNA (oligos 3-4) (dsDNA)
DNA 1: TGAGTTTTTTTCATTTTTTGCGTAAATTTC
DNA 2: GAAATTTACGCAAAAAATGAAAAAAACTCA
B1: the binding result in series [1] is “binds”.

B2: random 30-nt ssDNA (oligo 3) (ssDNA)
DNA: B1 DNA 1
Turning to B2, the binding result in series [2] is recorded as “binds”.

B3: hairpin DNA (oligo 5) (structured_DNA)
DNA: TGAGTTTTTTTCATTTTTTGCGTAAATTTCGAAATTTACGCAAAAAATGAAAAAAACTCA
For B3, the binding result in series [3] (label: 5'-6-FAM, hairpin) is recorded as “binds”.

B4: Holliday junction DNA (oligos 7-10) (structured_DNA)
DNA 1: GCGTTACAATGGAAACTATTCTTGGCAGTTGCATCCAACG
DNA 2: CGTTGGATGCAACTGCCAAGAATAGTGTCAGTTCCAGACG
DNA 3: CGTCTGGAACTGACACTATTCTTGGCGAATGGTCGTAAGC
DNA 4: GCTTACGACCATTCGCCAAGAATAGTTTCCATTGTAACGC
Take B4: in series [3] (four-way junction of 4 strands), the binding result was “binds”.
